Source: PMC3089470 (Nucleic Acids Research, 2011)
Residue numbers refer to the chain shown, from its start.

How the values were obtained:
Assay in all cases: pull-down
[1] = target: T1, NBS1A with the mutation R215W (UniProt O60934 1-221, R215W)
T1 sequence: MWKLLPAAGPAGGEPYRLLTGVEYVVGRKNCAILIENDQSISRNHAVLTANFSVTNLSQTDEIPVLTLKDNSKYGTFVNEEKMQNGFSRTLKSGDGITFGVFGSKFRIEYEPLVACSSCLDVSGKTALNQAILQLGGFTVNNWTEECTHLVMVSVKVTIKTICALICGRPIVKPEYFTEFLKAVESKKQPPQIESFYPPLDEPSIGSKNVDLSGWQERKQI

[2] = target: purified recombinant MRN complex (Mre11:Rad50:NBS1) (UniProt P49959;Q92878;O60934)
purified recombinant MRN complex (Mre11:Rad50:NBS1), sequence (P49959 whole entry, chain 1 of 2): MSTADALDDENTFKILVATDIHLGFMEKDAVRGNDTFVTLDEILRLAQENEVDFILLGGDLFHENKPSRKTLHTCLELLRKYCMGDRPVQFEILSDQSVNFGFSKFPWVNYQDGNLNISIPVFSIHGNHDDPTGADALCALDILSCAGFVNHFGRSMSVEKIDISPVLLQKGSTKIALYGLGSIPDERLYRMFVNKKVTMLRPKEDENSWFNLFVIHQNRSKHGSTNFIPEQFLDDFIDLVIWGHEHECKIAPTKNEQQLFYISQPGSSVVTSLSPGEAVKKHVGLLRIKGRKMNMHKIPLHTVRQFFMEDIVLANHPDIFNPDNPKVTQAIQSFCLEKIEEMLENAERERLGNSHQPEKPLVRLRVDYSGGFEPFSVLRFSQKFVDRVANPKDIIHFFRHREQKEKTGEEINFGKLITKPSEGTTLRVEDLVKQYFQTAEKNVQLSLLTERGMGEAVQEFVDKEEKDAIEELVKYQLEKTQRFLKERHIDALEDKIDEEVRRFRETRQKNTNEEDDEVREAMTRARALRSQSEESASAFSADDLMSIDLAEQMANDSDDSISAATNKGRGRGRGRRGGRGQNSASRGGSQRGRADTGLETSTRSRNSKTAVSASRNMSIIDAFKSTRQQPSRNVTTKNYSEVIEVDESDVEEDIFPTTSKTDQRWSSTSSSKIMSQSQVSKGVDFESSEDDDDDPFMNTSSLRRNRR
purified recombinant MRN complex (Mre11:Rad50:NBS1), sequence (Q92878 whole entry, chain 2 of 2): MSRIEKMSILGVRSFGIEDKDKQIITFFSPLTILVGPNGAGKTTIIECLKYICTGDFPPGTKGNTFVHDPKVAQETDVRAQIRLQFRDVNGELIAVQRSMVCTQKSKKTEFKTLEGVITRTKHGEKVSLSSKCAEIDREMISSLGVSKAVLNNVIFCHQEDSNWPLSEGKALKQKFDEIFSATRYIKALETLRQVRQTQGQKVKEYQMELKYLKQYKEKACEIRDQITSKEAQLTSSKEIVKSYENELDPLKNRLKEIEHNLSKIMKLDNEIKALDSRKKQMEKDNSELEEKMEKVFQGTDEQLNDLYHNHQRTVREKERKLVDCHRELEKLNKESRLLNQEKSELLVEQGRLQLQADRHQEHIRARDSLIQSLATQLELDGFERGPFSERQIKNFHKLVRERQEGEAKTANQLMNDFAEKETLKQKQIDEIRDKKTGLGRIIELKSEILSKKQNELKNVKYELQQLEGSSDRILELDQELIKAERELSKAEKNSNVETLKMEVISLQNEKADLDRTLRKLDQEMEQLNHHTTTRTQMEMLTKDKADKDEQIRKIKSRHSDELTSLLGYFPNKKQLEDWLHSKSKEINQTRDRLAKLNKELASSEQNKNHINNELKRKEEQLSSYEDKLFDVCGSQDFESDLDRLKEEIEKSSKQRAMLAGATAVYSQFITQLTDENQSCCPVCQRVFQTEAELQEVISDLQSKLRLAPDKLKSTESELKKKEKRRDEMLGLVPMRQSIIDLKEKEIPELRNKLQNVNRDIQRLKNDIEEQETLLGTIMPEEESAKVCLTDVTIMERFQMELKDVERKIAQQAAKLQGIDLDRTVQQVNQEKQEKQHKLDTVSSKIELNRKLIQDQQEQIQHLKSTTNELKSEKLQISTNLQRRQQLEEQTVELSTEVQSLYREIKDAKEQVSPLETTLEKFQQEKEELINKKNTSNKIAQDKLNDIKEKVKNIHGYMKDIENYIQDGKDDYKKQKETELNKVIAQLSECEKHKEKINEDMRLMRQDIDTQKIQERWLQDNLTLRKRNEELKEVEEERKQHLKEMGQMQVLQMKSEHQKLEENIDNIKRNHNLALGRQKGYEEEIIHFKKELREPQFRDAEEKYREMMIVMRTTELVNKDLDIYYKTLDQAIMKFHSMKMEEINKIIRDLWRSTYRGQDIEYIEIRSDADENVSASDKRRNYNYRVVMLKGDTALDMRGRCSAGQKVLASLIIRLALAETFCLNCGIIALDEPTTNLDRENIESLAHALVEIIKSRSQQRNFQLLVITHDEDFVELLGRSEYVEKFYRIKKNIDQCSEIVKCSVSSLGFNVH

[3] = target: T2, NBS1A with the mutation I171V (UniProt O60934 1-221, I171V)
T2 sequence: T1 sequence with I171V, W215R

[4] = target: T3, GST-tagged NBS1 fragment NBS1A (1-221) (UniProt O60934 1-221)
T3 sequence: T1 sequence with W215R

Measured: binding result

B1: hSSB1, full-length recombinant, His-tagged (natural protein)
chain: MTTETFVKDIKPGLKNLNLIFIVLETGRVTKTKDGHEVRTCKVADKTGSINISVWDDVGNLIQPGDIIRLTKGYASVFKGCLTLYTGRGGDLQKIGEFCMVYSEVPNFSEPNPEYSTQQAPNKAVQNDSNPSASQPTTGPSAASPASENQNGNGLSAPPGPGGGPHPPHTPSHPPSTRITRSQPNHTPAGPPGPSSNPVSNGKETRRSSKR
binds: all assays above
